Values quoted from earlier work, collected in patent US20240424090A1, “COMPOSITIONS AND METHODS FOR USE IN IMMUNOTHERAPY” (INSTITUT CURIE, priority 2021, published 2024).

Columns and labels:
FCGRIIA = target: T1, FCGRIIA (Homo sapiens, UniProt P12318)
T1 sequence (P12318 34-317): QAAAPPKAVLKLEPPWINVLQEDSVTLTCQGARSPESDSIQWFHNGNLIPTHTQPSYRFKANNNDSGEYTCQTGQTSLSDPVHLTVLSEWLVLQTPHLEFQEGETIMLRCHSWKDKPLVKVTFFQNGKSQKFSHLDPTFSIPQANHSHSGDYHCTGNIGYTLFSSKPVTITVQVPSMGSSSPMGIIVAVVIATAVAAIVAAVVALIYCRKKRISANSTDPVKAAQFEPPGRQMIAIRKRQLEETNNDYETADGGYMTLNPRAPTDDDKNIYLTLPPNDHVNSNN

FCGRIIIA = FCGRIIIA (Homo sapiens, UniProt P08637)
Chain of FCGRIIIA (P08637 17-254): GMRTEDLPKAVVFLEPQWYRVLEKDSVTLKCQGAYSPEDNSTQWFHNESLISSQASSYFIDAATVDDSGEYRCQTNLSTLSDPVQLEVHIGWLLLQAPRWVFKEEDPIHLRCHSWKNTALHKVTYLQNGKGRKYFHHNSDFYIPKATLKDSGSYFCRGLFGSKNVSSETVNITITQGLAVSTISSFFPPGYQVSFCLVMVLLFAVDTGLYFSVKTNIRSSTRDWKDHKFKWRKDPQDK

Tremelimumab: IgG2 anti-CTLA-4 antibody
binding to FCGRIIA (FCGRIIA): binds well
binding to FCGRIIIA (FCGRIIIA): not
